From a protein production outcome set (Wang et al. 2014)

Experiment: label from the status in PepcDB records
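Further: failed if final PepcDB status was selected cloned or expressed and not failed if soluble or beyond.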

Sequence	protein production
MRLSFGITSKLFVALFALSMVVALAMGAAVRWRFDTNFLDYVNAREAERMAVFAQSIESVYAEHGNWGVLRNDRQAWYRLIRREIGRTHAGPFGGPRGDAEPVPPFAPPPGDVPPPGLPPPPPDAGDRPPQHPPGEGPGMHPPIWLLDAGRVPIVGDGPPPGPGSQWHALHHNGQTVGWLATPQRMHVPEGADQAFLAQQLRATWIIAALSVLLAAGVAILLARGVLAPMRRLAHATRRMAEGDYAARVDVHSGDEIGHLADDFNRLAETLEANQKMRRQLTADISHELRTPLAVLRGELEALEDGVRALTPASLTSLQAEVGTLSKLIDDLYELSLADVGALAFHMESIDLADTVCSAAQGFTPRLMDKRIALQLDLPTGPSRDAAIQGDPQRLRQLMQNLLENTLRYTDAGGTLRIHVHRAGAWWCLDVQDSAPGVPEAMLPRVFDRLFRADPSRGRAQGGAGLGLSLCQTIVQTHGGTIDARPSPLGGLWIAIRLPAANSSVADHDPDR	failed
MRLTARSEPSSAPFPSGTGRQIGADCNGPSACQALQFTPFCPSRDNEMSDWSLDQARKTYSIPHWADGYFDVNDAGHVVVRPTADGPAVSLPEVVDAARAAGAKLPLLVRFPDILGQRLGKLQAAFAQAQADWDYAGGYTAVYPIKVNQHRGVAGTLASHHGEGFGLEAGSKPELMAVLALSRPGGLIVCNGYKDREYIRLALIGRKLGLQTFIVIEKPSELNLVLEEARALDVKPGLGVRMRLASLGAGKWQNSGGDKAKFGLSPRQVLDLWKSLRDTEYADSLNLLHFHMGSQISNVRDIANGMREATRYFVELSRLGAKISHVDVGGGLGIDYEGTRSRSYCSINYGLHSYASNIVQPLASACEEHGLPPPRIVTECGRAMTAHHAVLIANVSEVEQAPEGRVPDAHDDEPAAIRHLREIHDELDVRPAVELFQEAQHFHAEGLSAYALGQIDLTHRARIDDLFYAIAHGVRARLSFDEKSHRPVLDELNERLVDKYFVNFSVFESIPDVWAIDQVFPIVPIERLNEAPQRRGIIADMTCDSDGMVKTYVENESLDSSLPLHGLNPGESYRIGFFLVGAYQEILGDIHNLFGDTDAVEVAVDGTGYRIAQQRRGDTTDVMLDYVGYQLDTLRATYAERIAAAQLPPERAQELHDALEAGLTGYTYLSDEPLG	failed
MRLTDQKRESIVQAAIAEFGDRGFEITSMDRIAARAEVSKRTVYNHFPSKEELFAEMLQRLWNCAPPQSEVVYRPLVSLREQLLELLWGKMRNLTDSSFLDLARVVVGATIHSPERAQVWLARINEREETFSAWIRAAQKDGRLKPVDPGFAATQMHALLKSFAFWPQVTFNAALLTPQEQSNVVESALNMFLGWYEIPG	not failed
MRLTSKGRYAVTAMLDVALNSEAGPVPLADISERQGISLSYLEQLFSRLRKNGLVSSVRGPGGGYLLGKDASSIAVGEVISAVDESVDATRCQGKGGCQGGDKCLTHALWRDLSDRLTGFLNNITLGELVNNQEVLDVSGRQHTLEHHHHHH	not failed
MRLTVDQALAQAIAAHRSGQLQDAERLYRAILDAAPGHADANHNLGVLAVGVGKPQAGLSFLKAALEINPAQGQFWVSYIDALIAAGLPAAARDHLEQAKRRGLTGDAVERLEKRLDPASQPPQALLDSVVAQYRSGNLAAAESQAHALTLSFPNHELGWKVLGAVFSVTGRSEESLASMRQALSLNPQDAETFKNLAILLLKLKRAEEAEAACRSALALAPDYPQVHLTLGNALIDLARAAEAEESFRQAIRLKPDYSEAHCNLGCALKLSGRLTEAETCFRRAIQLNPADAQAHNNLGDVFKDLGRFADAEAFYRAAIGLKPEYLEAHSNLLLCLNYFETSSPDTYLAEAKQYGSVASAAATPKFSAWSIQPEPRRLRVGFISGDLNSHPVGYFSESVFQHLDRDRFELFAFPTTPKTDALTSRISPFFAGWCPIFGMDDHAAATAIHTQGVHVLVDLSGHTADNRLPVFAFRPAPVQASWLGYFATTGLPEMDYFLGDRYMVTETEQQRFTETLWRLPETWLCLAPHERSIPINPPPVLTNGFMTFGCLGNLSKMNGEVVALWSQILRAVPESKLLLKAKPFVDAQVVADIQARFAREGVSSDRLILEGPSSRAEYFETYNRIDLVLDTFPYPGGTTSVDALWMGVPVLTLAGDRFLARLGESIARNAGQSAWVARDRADYLAKAVAFASVRDVAHDRPALRRSVLTTPLFDPERFARDFGDTLWGMWSQGRSHPLRKDAPCRS	failed
MRLTVWTYEGPPQVGAMRVATAMRGVHYVVHAPQGDSYADLLFTMIERRPGRPAVSYTSFQARDLGTDTAALFKTAAADAVARFQPEALLVGSSCTGELIQDDPGGLAKALGLSIPVIPLELPSYQRKENWGAAETFYRLVRTMAGPAAPAPGTPRAPRPAGQRPRCNLLGPTALGFRHRDDVQAVVALLGRMGVDVAVVAPLGASPADLARLGEADFNVVLYPEIADTAVRWLERAFGQPSVRTVPIGVGATRAFIAEVAAVAGVDPAPALAEESLRLPWWSRSVDSTYLTGKRVFIFGDATHAVAAARVATEEFGFEVVGLGTYAREYARELRACAGALGLEALITDDYLDVEAAIADAHPDLVLGTQMERHIAKRLGVPCAVISAPVHVQDFPARTAPQMGFDGANVLFDTWVHPLMMGLEEHLLMMFRDDFEFHGDAAPSHLSAHRPTGEAVGDAVGEPPAAPRDQAAPAATLDGSAAQSDPARTTPPGAPSWEDSAEKELRKVPFFVRGKARRNTERFAAERGLASISVETLYDAKAHFGR	failed
MRMEDEDYNTSISYGDEYPDYLDSIVVLEDLSPLEARVTRIFLVVVYSIVCFLGILGNGLVIIIATFKMKKTVNMVWFLNLAVADFLFNVFLPIHITYAAMDYHWVFGTAMCKISNFLLIHNMFTSVFLLTIISSDRCISVLLPVWSQNHRSVRLAYMACMVIWVLAFFLSSPSLVFRDTANLHGKISCFNNFSLSTPGSSSWPTHSQMDPVGYSRHMVVTVTRFLCGFLVPVLIITACYLTIVCKLQRNRLAKTKKPFKIIVTIIITFFLCWCPYHTLNLLELHHTAMPGSVFSLGLPLATALAIANSCMNPILYVFMGQDFKKFKVALFSRLVNALSEDTGHSSYPSHRSFTKMSSMNERTSMNERETGML	failed
MRMNILLAFKAEPDAGMLAEKEWQAAQGNSGPDVSLLRSLLGADEQAAAALLLAQRKNGTSMSLTALSMGDERALHWLRYLMALGFEDAVLLETAADLRFAPEFVARHIAEWQYQNPLELIITGCQSSEGQNGQTPFLLAEMLGWPCFTQVERFTLDAPFITLEQRTENGLRCCRVRLPAVIAVRQCGEVALPVPGMRQRMAAGKAEIIRKTVAAEMPAMQCLQLARAEQRRGATLIDGQTVAEKAQKLWQYYLCQRMQP	failed
MRNGILYAILLYVFMFVLWFCFAYFIDTSTTIFNIPLWFFLSGILFPSIIFFWFVFLF	failed
MRNKQSLVFLASSLFLLILAPITSEAISNPSTNINEVNREIVEESANDQATSAPSHSETLEQEPSLETTTTTDNHPAETDQSTATLEPSEQQKDDGTSATESVIVEPQPRMLAAPYATSLPDDPNIIPIDKVFQEPIGNATSILEGGKLLQLNPAVKSQKGAIWSKKPISLLSDFTFKSYLYLGNEYANAGDGMTFTLTNDPRMSTTPQEVIGSPGMGIGAYSTKAGQPYVRNALSIEFDTYKNTGSSNRMDREISQDKGNGHLAFVTPKANNNNYTGEHSGVTVAPTYLSNGTWRMLTVHWNAATKALTYDLEGVGTNTYVVSDLNAQFGATTVYWGFTSSTGGKYQENALAMTQIPTNVTSQAALSVNGQEFSSAVEAVKNDQVRLRNTLNIDNDFIEDRQPQVSIDLPDELAYEENSLTIDGKKVAAKDLTQTGNHLTIALNDYLVLKKDMMIELKTTLQDNTPEKVLTMNFDYYEEGTLLQKSNNVTITIPKPTEKTVTVFYKDAEGKDIAPPKSVTGKIGAPYQEKPLDISGYVFTKDSGNAEGTMTEETKDIYFYYRLGELYFKEAPKQITFGTEKIRNQPLIKLGHPTEGLKVVDERNANNWRLQLKQTQPLTNDSIVMPDVFSFVSTAGSSQITNEAITLLESNQKGETDLTALLDESKQQGIQINVPVAYQRVGTFKARLSWALEDVPGN	failed
MRNVLITGATSGIGLSLVEKYLQAGDKVYACGRNFQAYLKSSSLIDAEKSDKLVKIVFDMNHHDAIIDVLTEVESLDIAILNAGTCEYIDDAMGFDAELFERVINTNVISIGYCLQALLPKMKQKGHLALMGSSAAFVPFQRAEAYGASKAAIHYLAQSLQLDIPKERLTISVIAPGFVKTPLTDKNDFPMPMLIEPDKAADHIINGINNNKQHIHFPFPFTRFLILMGALPSCIWQWMALRMKRK	failed
MRPIKLLPDGLISQIAAGEVIERPASVLKELLENAIDAGTTDISVNIAQGGLKLIRVTDNGGGISGEELPLALTRHATSKIASQEDLYRITSLGFRGEGLASIASVSNLLLISHQPGGKHAWQIRSEGIRVMQPEPSSHAAGTTVEVRDLFFNLPARRKFLKTEATEFAHCEEIIRRMALSHAGIAFTLRHNGNLRGHWQSAEAAVRIKTVLGEEFTRSAAWIDERSAGIGLQGMLALPAYSRAARDMQYFFVNGRFVRDKLITHALREAYRDVLHLDRHAAFVLYLDIDPEQVDVNVHPTKTEIRFREARAIHQFIYHGVSKALSLPRSGTELSQSSSQLMADDIVPPAEKRVPAAPMLNYPRQTGLPSEMIAQPFNFYQVLSGSESDSTATQNPFRQTGAGESNEHPALPPLGFALGQLHGVYILAQNWKGLVIVDMHAAHERIVYEQLKLQMDEQTLSAQRLLIPVTFHADSLDIATAEENQSLLQQLGFEVTVLTATTLAVRAVPAILQDADTEKLVCNVLDEIRNGDPGQLLAARRNELLATMACHGAVRANRPLTLIEMNELLRKMEVTERSDQCNHGRPTWFEISLAELDKMFMRGK	failed
MRPMASELTTFVLIFGTLLFVFGLFSRKIEGTVVTIQMIFLAAGILLSPIGLNLISLSPRSGLVLGVIKVALVLTFFSDASLIGLHSLFLKERLSVRLLFLGLSLTICLGTVFAALLFADITFIDAILLGIILAPTDASLAQKVVEERQVPTLIRNGLIIESGLNDGAVMPLFIFVVALEAVEKLNRPLGTFLAIALEQIGFGIFVGIIIGLVGGWLFSRAFKAGSMSEVYYRTEFVALALISWLVADGVGGNGFIAAFIAGLATRIEDRQVTEEEVILLPRAEGNVLNLAVLFILGVMSAEYLPLVDLKIFAYAVLSLTVVRMVPVTISLIGSHLNIKTGLFMGWFGPRGLASIVLMLITVERIEGIRVSGTIGLAVITTVIISVFAHGITAGPVSNWYARIIATLPPDAPEKESVEELTALQGIETTENIHKEPY	failed
MRPRPDAALAMSSGPPAARKPGVVQPALLNMSAWLRPEPGLTVVTPLVRALVLISAFSPQERWLGNGQLAQRTGLPPSTVSRIAQSLVHLGYLLHDGAERKYRLAPAVLGLGYAAIAHSAIQGLAGERMAAFARQHKVHVCLAARDRLDLVVLECRRSLECPVALPLHVGMRVGIAQSPMGWSMLAALPELERCYLLDNVERRMARDWSRLRRRVWEGMAQVGETGYCTSIGEWNPELGALATPVLLEGSSPFVLACIGTSQTMTRARVARELGPRLLAMREALQTEFNVIGH	failed
MRPTPYLAPIPVRGRISRPQPKGLPVINMGYNELPYPPLPAIRAAMEETAERAQSYGSPHCDALRDALGAAHGLDPEQIVCGNGSEELLDVIARCFARPGDEILISEFGYIQFALTANRVGATLVKARERDNTSDVDALLAAVSEHTRLLFLANPNNPTGTMLEIDELSRLARDLPAQVVLVLDLAYGEFAAPDYCAAVHSLAANHENIVVTRTFSKAYGLAGARVGWCHAPAWMVPVLYAARGMGTVNALAQAGAVAGLADPAAIQERVDEIVSERARLTGALGQLGLVVTPSRTNFLMARFREGDAARTEALVEHLFEDAGIVVNRTREAGLEAFFRFSLSLPAHNDLLLDSIRRFIGQG	failed
MRQSCLMTEQLQDIKTLIEQGDTERAIHALTNFIRNDAHVNDEPYYLLGNAYRKMGDWQQALNNYLEAIERNPESPAVSARNMIMNILNFYNKDMYNQ	failed
